Data taken from the supplement of paper PMC10567573.
± gives the standard deviation.

Test: protein stability index of a GFP-peptide fusion (GPS, HEK-293T) (PSI 1-6); higher = more stable
[1] = treatment: DMSO, c terminus: a fixed tail appended
[2] = treatment: MLN4924 1 uM, 8 h, c terminus: a fixed tail appended
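Further: 24-mer peptide tiles fused after GFP, lentivirally expressed, FACS-sorted into six equal bins by GFP/DsRed ratio, decoded by Illumina sequencing, PSI is the read-weighted mean bin number.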

Row | Sequence | protein stability index [1] | protein stability index [2] | protein stability index (treatment: DMSO, c terminus: native) | protein stability index (treatment: MLN4924 1 uM, 8 h, c terminus: native)
1 | IYSTKLYRFFKYIENRDVAKSVLK [BTBD10] | 3.1 ± 0.97 | 2.37 ± 0.61 | – | –
2 | CTAGNFMECQPESSISHRFHKDCA [EHMT1] | 2.96 ± 0.25 | 3.03 ± 0.27 | – | –
3 | LTLVFFVQITGQPNILFYASTVLK [SLC2A12] | 3.19 ± 0.51 | 3.5 ± 0.59 | – | –
4 | LFEEPEDPSNRSFFSEIISSVSDV [PPP2R2C] | 4.24 ± 0.057 | 4.19 ± 0.19 | – | –
5 | QNQPIDKARKTYERLVAQFPSSGR [CSTF3] | 3.75 ± 0.26 | 3.9 ± 0.24 | – | –
6 | DIDGDVLVFLELAQFHCAYQLADW [RHOBTB2] | 2.76 ± 0.47 | 3.23 ± 0.62 | – | –
7 | SLAAFSVISVVSYLILALLSVTIS [RTN3] | 3.41 ± 0.21 | 2.8 ± 0.19 | – | –
8 | MTVPATAIYFTAYDQLKAFLCGRA [SLC25A39] | 2.35 ± 0.51 | 2.23 ± 0.33 | – | –
9 | DVQSMPKTGILILILSIIFIEGYC [MAGEA10] | 2.86 ± 0.97 | 2.88 ± 1.2 | – | –
10 | GTVFQELNKLYPTHACREYLKNLP [TPH1] | 2.46 ± 0.34 | 2.38 ± 0.26 | – | –
11 | EDMLWDDLLHGPECRSSVTSDSEG [PHTF1] | 5.07 ± 0.3 | 5.16 ± 0.16 | – | –
12 | VEVDTAPTVDLNQVLNETRSQYEA [KRT34] | 5.2 ± 0.17 | 5 ± 0.32 | – | –
13 | LGHREPSAHPVEVFSFDLHEPLSK [TMEM175] | 3.92 ± 0.16 | 4.17 ± 0.28 | – | –
14 | HHAALNGHVEMVNLLLAKGANINA [ANKRD44] | 2.51 ± 0.4 | 2.89 ± 0.2 | – | –
15 | PFILPDMVGGNAVPQRTAGGDVPE [MYORG] | 4.96 ± 0.24 | 5.09 ± 0.2 | – | –
16 | TDVQKKKLVDAIVSGDTSKLMKIL [RIPK4] | 2.78 ± 0.73 | 2.77 ± 0.31 | – | –
17 | LQRWCRAKHMGLEPPPEVWQVLKT [POLD4] | 2.28 ± 0.056 | 2.56 ± 0.14 | – | –
18 | ETNLLLAQKQRLERALDATEVPFS [TEKT4] | 4.1 ± 0.29 | 4.21 ± 0.25 | – | –
19 | KGDVEEVQGPGVVGEFPIISPGRV [FBXO3] | 4.81 ± 0.27 | 4.8 ± 0.2 | – | –
20 | LLLCGTISLRVYRKVLQAVHRGDG [RTN2] | 2.66 ± 0.37 | 2.36 ± 0.63 | – | –
21 | LTIRESILINNGSRIKGWWVFHHY [TMEM120A] | 3.1 ± 0.7 | 2.73 ± 0.92 | – | –
22 | ELQIELLRETKRKYESVLQLGRAL [ARFIP2] | 2.54 ± 0.12 | 2.55 ± 0.23 | – | –
23 | SLKLKSSHHSKHKAPSKLGLIISG [DLC1] | 2.66 ± 0.072 | 2.77 ± 0.55 | – | –

Row | Sequence | protein stability index [1] | protein stability index [2] | protein stability index (treatment: DMSO, c terminus: native) | protein stability index (treatment: MLN4924 1 uM, 8 h, c terminus: native)
24 | FTIHNYSHSRERPYKCVQPDCGKA [PLAGL1] | 2.86 ± 0.45 | 2.89 ± 0.37 | – | –
25 | KLGNLMSLDISGHMILENCSISKM [ZER1] | 2.1 ± 0.24 | 2.24 ± 0.24 | – | –
26 | TLSEAYIQIWKRRDNDETNQQGA [USP39] | – | – | 2.52 ± 0.65 | 3.24 ± 0.42
27 | SGKELKIDIIPNPQERTLTLVDTG [HSP90AB1] | 3.98 ± 0.42 | 3.58 ± 0.48 | – | –
28 | PAIADLFAESLQCKVDCEANLTPN [P3H4] | 3.93 ± 0.38 | 4.05 ± 0.55 | – | –
29 | GSLGFEPVYVSCIAQDTCTTTDHS [SPAG8] | 3.37 ± 0.35 | 3.64 ± 0.17 | – | –
30 | MVIHIPEEPRPSRPRYKADVPDLQ [KCNK9] | 3.02 ± 0.21 | 3.24 ± 0.18 | – | –
31 | GAGLPQFQSISLRKIQFNFPYFRS [CLCN6] | 2.13 ± 0.26 | 2.21 ± 0.41 | – | –
32 | PHCSDLMPSGSEEKILRELSEEEE [KCNA4] | 5.64 ± 0.23 | 5.56 ± 0.24 | – | –
33 | VGNISKDLGLAPRELAERGVRIVS [PCDHGA10] | 3.57 ± 0.29 | 3.75 ± 0.42 | – | –
34 | SSTTGLFYSAEIICAIEYLHSKEI [PRKX] | 3.13 ± 0.61 | 3.33 ± 1 | – | –
35 | MPSGSEEKILRELSEEEEDEEEEE [KCNA4] | 5.53 ± 0.59 | 5.69 ± 0.14 | – | –
36 | MCLFLQSLRQKQPERLCSGPGIVG [GMPPB] | 2.27 ± 0.41 | 2.17 ± 0.46 | – | –
37 | KYDVKKVEEVVYDLSIRGFNKETA [TSN] | 3.57 ± 0.31 | 3.64 ± 0.23 | – | –
38 | YQRWIYRVDPTRVNEFGMSGEDPT [CLPTM1] | 2.6 ± 0.34 | 2.72 ± 0.3 | – | –
39 | SSGEDDDFKSCPQGPQGREGLAFL [PWWP2B] | 4.75 ± 0.23 | 4.85 ± 0.18 | – | –
40 | SSGQCRRRKRTYWNDSCGEDMEAS [WEE1] | 4.18 ± 0.43 | 4.52 ± 0.43 | – | –
41 | GKEDSTLQLLREENRALQQLLEQK [CBY2] | 4.81 ± 0.23 | 4.84 ± 0.38 | – | –
42 | YLDLPGSRQGSAEALRALQEGLWL [PKD2L1] | 2.71 ± 0.27 | 2.64 ± 0.34 | – | –
43 | SEREANDALNAYVCKGLPQHEEIC [INTS3] | 4.56 ± 0.23 | 4.52 ± 0.25 | – | –
44 | LRYSVVEESEPGTLVGNVAQDLGL [PCDHGC5] | 3.94 ± 0.13 | 3.86 ± 0.26 | – | –
45 | WPARVLDISLGQKEDGEPSWREAK [PWWP2B] | 4.18 ± 0.12 | 4.27 ± 0.11 | – | –
46 | HGLPFLPGTSFKDSTKTAFHRSQT [EFHC1] | 3.53 ± 0.15 | 3.63 ± 0.087 | – | –

Row | Sequence | protein stability index [1] | protein stability index [2] | protein stability index (treatment: DMSO, c terminus: native) | protein stability index (treatment: MLN4924 1 uM, 8 h, c terminus: native)
47 | QLQDQDQKLLEQTQIIGEQNARLA [FBXO28] | 4.75 ± 0.18 | 4.74 ± 0.15 | – | –
48 | HQTLKCSALATQYMHCVNHAKQSM [CHCHD3] | 2.1 ± 0.22 | 2.29 ± 0.17 | – | –
49 | DTRRLITKPQNLNDAYGPPSNFLE [SNX3] | 3.69 ± 0.17 | 3.88 ± 0.17 | – | –
50 | MESSKPGPVQVVLVQKDQHSFELD [ATL3] | 4.35 ± 0.19 | 4.04 ± 0.33 | – | –
51 | KTLALARTMDIPRSVQNFRFFASS [ALDH8A1] | 2.58 ± 0.26 | 2.6 ± 0.3 | – | –
52 | PSGAGKTVVGVPSGKVSSSSSSLG [ZC2HC1A] | 4.47 ± 0.35 | 4.65 ± 0.14 | – | –
53 | SEEQVSKNLFGPPLESAFDHEDFT [FCHO1] | 5.22 ± 0.4 | 5.26 ± 0.21 | – | –
54 | KSWHDMQTTTAYKKTHETLSHAGQ [TPD52L1] | 4.01 ± 0.15 | 3.96 ± 0.18 | – | –
55 | SKSNLGWTPLHLACYFGHRQVVQD [OSBPL1A] | 2.62 ± 0.6 | 2.12 ± 0.55 | – | –
56 | SPDSPKGSSETETEPPVALAPGPA [ESRRA] | 5.56 ± 0.31 | 5.63 ± 0.12 | – | –
57 | SLGQLPLPPIPHVFSAGTGSAILP [PLAGL1] | 2.82 ± 0.28 | 3.07 ± 0.22 | – | –
58 | PGEWLELLLEPGSLYILRGSARYD [ALKBH7] | 3.2 ± 0.38 | 3.08 ± 0.51 | – | –
59 | LTCDSSTSSSDDDEEVSGSSKTIT [C18orf25] | 5.4 ± 0.26 | 5.46 ± 0.21 | – | –
60 | MPPKKQAQAGGSKKAEQKKKEKII [ZC3H15] | 4.63 ± 0.18 | 5.1 ± 0.39 | – | –
61 | IIESFTELARIVLLRHRMNWLGRP [RAB40A] | 3.18 ± 0.72 | 2.79 ± 0.47 | – | –
62 | TFDNDYSLSELLSQLDSGVSQAVE [RIPK4] | 4 ± 0.074 | 4.1 ± 0.26 | – | –
63 | TENEEQTQLTQNAVSCPYLPSNLL [KCNA4] | 4.49 ± 0.27 | 4.63 ± 0.12 | – | –
64 | NVSGLRFETQMKTLAQFPETLLGD [KCNA4] | 3.53 ± 0.48 | 3.86 ± 0.1 | – | –
65 | HTFAGDDCQAGLNFADEDEAQAFR [WAS] | 5.26 ± 0.18 | 4.92 ± 0.38 | – | –
66 | QSWNNQAWNSPFYNCGEESLQSCM [NANOGP8] | 2.51 ± 0.18 | 2.48 ± 0.33 | – | –
67 | PGQHLSDYSQLNESTTKESSEASQ [FBXO34] | 5.47 ± 0.28 | 5.6 ± 0.24 | – | –
68 | NTAKSTSRVTAFLDDLSQKLKPLG [NLN] | 3.42 ± 0.15 | 3.35 ± 0.044 | – | –
69 | PKNDNVVIPECAHGGLYKPVQCHP [SMOC2] | 3.44 ± 0.15 | 3.6 ± 0.36 | – | –

Row | Sequence | protein stability index [1] | protein stability index [2] | protein stability index (treatment: DMSO, c terminus: native) | protein stability index (treatment: MLN4924 1 uM, 8 h, c terminus: native)
70 | LTLYNPTGTALRFRVLCTAPAKYT [MOSPD3] | 2.79 ± 0.65 | 2.69 ± 0.48 | – | –
71 | AGFQDIPKRCLKAREHFGTVKTHL [TSN] | 2.81 ± 0.44 | 2.78 ± 0.24 | – | –
72 | TYRRLLEDGEDFNLGDALDSSNSM [KRT18] | 4.29 ± 0.14 | 4.52 ± 0.21 | – | –
73 | KNLKIWNVHTGEFRNCGACVTLMQ [WDR88] | 2.42 ± 0.86 | 2.35 ± 0.54 | – | –
74 | LRCKLAAFYRLADLFGWSQLIYNH [ADD1] | 2.89 ± 0.49 | 2.78 ± 0.37 | – | –
75 | AFACQVAGCCQVFDALDDYEHHYH [ZNF511] | 2.97 ± 0.45 | 2.74 ± 0.5 | – | –
76 | AHTATASAVEGAPPARPRPRSPEC [IRX6] | 5.37 ± 0.13 | 5.19 ± 0.28 | – | –
77 | PKMLVDLLSQKKTISFLGCAIQMF [OR10K2] | 2.84 ± 0.58 | 2.93 ± 0.62 | – | –
78 | LGCNRQSWCLKRYDLEYWAFHDGQ [TRIM14] | 2.5 ± 0.34 | 2.34 ± 0.38 | – | –
79 | WTLRRTKELRKDYQGPGTRRLQEV [DYRK1B] | 3.11 ± 0.32 | 3.1 ± 0.32 | – | –
80 | KLLDHDNVKYLKKILDELEKVLDQ [GDAP1] | 2.42 ± 0.56 | 2.32 ± 0.47 | – | –
81 | NKRAALQALKRKKRFEKQLTQIDG [CHMP4C] | 3.95 ± 0.42 | 3.9 ± 0.34 | – | –
82 | GPTSSNPRKRHREDSDVEMVEDDS [MLH1] | 5.32 ± 0.13 | 5.22 ± 0.6 | – | –
83 | GGRAYQALHCPTGTEYTCKVYPVQ [TRIB3] | 2.73 ± 0.3 | 2.76 ± 0.33 | – | –
84 | LFLKDVLGDEICCWSFYGQGRKIA [KCTD13] | 2.64 ± 0.42 | 2.07 ± 0.55 | – | –
85 | QCPYCQRRFNENAADRHINFCKEQ [ZC2HC1A] | 4.91 ± 0.38 | 5.09 ± 0.2 | – | –
86 | DAHLVLDGEEIPVQKNILAAASPY [GAN] | 4.18 ± 0.12 | 4.16 ± 0.3 | – | –
87 | RAPLHSVGYTALVGSDAESWGWDL [SPSB4] | 2.81 ± 0.28 | 3.13 ± 0.17 | – | –
88 | HAYFRGHSPSCLARVTGELTMTFP [FCHO1] | 2.21 ± 0.52 | 2.23 ± 0.13 | – | –
89 | SCIGNKQKAVKSCLVCQASFCELH [TRIM29] | 3.51 ± 0.16 | 3.79 ± 0.34 | – | –
